From doi:10.1101/2021.06.14.448324

Key:
DTX3L D1 domain (human) = experiment: cross-linking
DTX3L D2 domain (human) = experiment: cross-linking

Substance: DTX3L D1 domain (domain or fragment)
- stoichiometry N (DTX3L D1 domain (human)): 2

Substance: DTX3L D2 domain (domain or fragment)
- stoichiometry N (DTX3L D2 domain (human)): 4
